This note sets out measurements from the supplement of paper PMC12042874.

This data set can be described thus: amyloid nucleation score (Sup35N fusion, yeast selection) (log enrichment); library NNK3; higher = more nucleation; inactive = no reads after selection. The procedure, abridged: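 After 24 hours of induction with 100 μM copper sulfate, psi-negative yeast expressing peptides of 20 random codons fused to Sup35N were grown for 7 days at 30°C on medium lacking adenine and uracil. Input and output plasmid inserts were sequenced with Illumina, and sequences with under 100 input reads were discarded. Scores for nucleation are the DiMSum log enrichment of output over input reads, centred on the mode score of non-aggregating sequences.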

± gives the uncertainty stated by the source.

For VCSVTFMLVLLCMRHCLITR, the amyloid nucleation score entry was “inactive”.

With MSFEYSPQGSILYGPSRNIY, the amyloid nucleation score result was “inactive”.

FEWFQCIYA: the amyloid nucleation score entry was “inactive”.

MYFSFLW: the amyloid nucleation score was 0.18 ± 0.47.

Consider TTTLDSQSNNMFGAS, for which the amyloid nucleation score result was “inactive”.

Turning to KYVAKFSSLILTFL, the amyloid nucleation score result is “inactive”.

Consider CDRTIMRSYDPAL, for which the amyloid nucleation score stood at 1.16 ± 0.099.

Take NDLSDSMRVR: the amyloid nucleation score result was “inactive”.

As for LCTSADYWSHKNRGRAYSRR, the amyloid nucleation score result was “inactive”.

For the substance TFNSLVCQFIKPLHHLFATL, the amyloid nucleation score result was “inactive”.

Take SDDRIT: the amyloid nucleation score entry is “inactive”.

As for NKNSVFSLSYPYYVTCVGTY, the amyloid nucleation score result was “inactive”.

Regarding STSFCSSLDLWSQEVIVASV, the amyloid nucleation score result was “inactive”.

In the case of KISFWVRERFNYRCTIGIEC, the amyloid nucleation score entry was “inactive”.

As for SQKFVYLMSPSWPGGQLEAR, the amyloid nucleation score entry is “inactive”.

Regarding IEYWFASRTFWSCRNMVRH, the amyloid nucleation score was -0.342 ± 0.98.

In turn, GNLDTS displayed an amyloid nucleation score of -0.668 ± 1.

Consider VGERLANQIGTYCDDQWWTW, for which the amyloid nucleation score entry is “inactive”.

Take VYFGSWTWSVNSKHLPPALV: the amyloid nucleation score entry is “inactive”.

The substance IFVLDASMVMSFYVSVDASS registered an amyloid nucleation score of 0.989 ± 0.093.

YWNYQMVCFCVNCV yielded an amyloid nucleation score of 2.17 ± 0.075.

Regarding VWVLYGKITVPSPKARMGKT, the amyloid nucleation score was -0.083 ± 1.1.

Substance RSRLCWED had an amyloid nucleation score of -0.029 ± 0.5.

As to FKSAFWLIM, the amyloid nucleation score result is “inactive”.

FSVRIKYI: the amyloid nucleation score entry is “inactive”.

For the substance IVRLFLDVSSVTGHIWARCL, the amyloid nucleation score result was “inactive”.

In the case of GVIWSMWIASL, the amyloid nucleation score result is “inactive”.

As to RTVKNSRLGTMIVY, the amyloid nucleation score entry is “inactive”.

Consider TKGKLLSKHLGFVRCRVHRS, for which the amyloid nucleation score entry is “inactive”.

As for LKKYCMYMSSY, the amyloid nucleation score result was “inactive”.

As for TRKLIDYLFTVKQVLQSKEE, the amyloid nucleation score result was “inactive”.

On to AIRFVNPMFSFWVSNWNYAG, for which the amyloid nucleation score result was “inactive”.

Take DATRSCLWMYAIVYNACIGH: the amyloid nucleation score result was “inactive”.

As to CLFRYSEYSVGKLMGYCDCG, the amyloid nucleation score result is “inactive”.

Substance ILEYAVVNHQVNLVIVSIGH displayed an amyloid nucleation score of 1.65 ± 0.068.

Regarding RYVRCNRMWIIDLDEHARGK, the amyloid nucleation score result was “inactive”.

As for LPRLFVVDYPSQ, the amyloid nucleation score entry is “inactive”.

Regarding GAWVTATWAFDAVLFCPGKM, the amyloid nucleation score result is “inactive”.

In the case of NMIAVYLVLPRDSLGMIFTF, the amyloid nucleation score result was “inactive”.

For the substance SYSLPMQKRCCIGIGEAGWN, the amyloid nucleation score is -0.354 ± 0.82.

As for CCFIYECSLRNLSALVDDQR, the amyloid nucleation score came out at 1.18 ± 0.091.

In the case of VMKSYDWEDWSSDPFIFRYV, the amyloid nucleation score entry was “inactive”.

As to SNDFEVLVLQLLYFSIWCY, the amyloid nucleation score was found to be 1.48 ± 0.091.

In the case of FFQESYLGMDLYELSTYNNV, the amyloid nucleation score result is “inactive”.

For the substance VDMVGYRNLRCHSN, the amyloid nucleation score entry is “inactive”.

As for RTWIRAYVSMQFRMCQDTDV, the amyloid nucleation score result was “inactive”.

For the substance FYMYLTSVCA, the amyloid nucleation score entry was “inactive”.

FPWYAIFSHSMLCVDIQDF: the amyloid nucleation score came out at 0.958 ± 0.2.

With TVGCHSGPELMFQSWNSRSL, the amyloid nucleation score entry is “inactive”.

Take SASRKNNQDVCGNCAVVGEF: the amyloid nucleation score entry is “inactive”.

Turning to RSMKLPAKTASLLH, the amyloid nucleation score result is “inactive”.

For RRVLTARDWVCH, the amyloid nucleation score result is “inactive”.

PYAPVWKRGRNYFTNSFLYM: the amyloid nucleation score result is “inactive”.

The substance FSALQWGSRTYIFVYSGNMS had an amyloid nucleation score of 0.658 ± 0.24.

In the case of NKRGNVASLLSLACKYGAEQ, the amyloid nucleation score result was “inactive”.

Take TSGHLVLGGYLSNQVKSVFR: the amyloid nucleation score is 0.605 ± 0.24.

For FMRDD, the amyloid nucleation score entry is “inactive”.

Take CVYGPRFNF: the amyloid nucleation score came to 1.94 ± 0.067.

Regarding WNLVPSHMFFV, the amyloid nucleation score entry was “inactive”.

In the case of VLCSVFIFFLRGFDS, the amyloid nucleation score came out at 2.3 ± 0.066.

Consider FNNFSYCHTDARVWVMATVM, for which the amyloid nucleation score entry was “inactive”.

Consider SFGILVYIRTAMPCTNIANY, for which the amyloid nucleation score entry was “inactive”.

As to IFLRYSLSSRYHRCLLLKES, the amyloid nucleation score entry is “inactive”.

As for YFVLFVRQCVKLVMRFGSED, the amyloid nucleation score result was “inactive”.

For VDQPQ, the amyloid nucleation score entry is “inactive”.

As for MWSHFFSQYSGWRFYTKSRF, the amyloid nucleation score result is “inactive”.

Substance FYRAYSDYFWKTMFSYLGTS had an amyloid nucleation score of -0.619 ± 0.93.

Turning to HHLSSDVSVLAFCNLPESNR, the amyloid nucleation score came out at 1.21 ± 0.17.

In the case of SRGTRSK, the amyloid nucleation score entry is “inactive”.

For RIFWHQCGYGSIRLWGQLDR, the amyloid nucleation score was -0.531 ± 0.83.

Turning to DREST, the amyloid nucleation score result is “inactive”.

The substance STVNVCYVSMGNWERLTDVR registered an amyloid nucleation score of 0.446 ± 0.26.

YEPTSAK: the amyloid nucleation score result is “inactive”.

Regarding LAIVRRCWNLRYAGYEI, the amyloid nucleation score entry is “inactive”.

Take LYLYI: the amyloid nucleation score result is “inactive”.

With FCFSYSYAYFCHIYGCGSNR, the amyloid nucleation score is -0.281 ± 0.36.

Consider YYSKPPCVLTDVGLIWLRPY, for which the amyloid nucleation score entry is “inactive”.

Turning to VICGCWIFFFYFLK, the amyloid nucleation score was -0.354 ± 0.73.

With YYNAGAGKRRYNRSVRGSLK, the amyloid nucleation score entry is “inactive”.

Turning to SGPSGSRCGDITLDTPPVLL, the amyloid nucleation score result was “inactive”.

As to SVSYFWFARL, the amyloid nucleation score is -0.005 ± 0.98.

As for TSVLSTGCYTRTVTNVNGSI, the amyloid nucleation score entry is “inactive”.

Take LRRRSLDHKSGSYLVTG: the amyloid nucleation score result is “inactive”.

As for VLDKVKWTLLCNGRRAVAPW, the amyloid nucleation score is -0.089 ± 1.4.

For LMLILCY, the amyloid nucleation score entry is “inactive”.

As for GNDNYVVLFNCDV, the amyloid nucleation score entry is “inactive”.

Take PEASLLVPMVSSYPLHFA: the amyloid nucleation score result is “inactive”.

As to SNFFRYIFYTRSQFSFQLIN, the amyloid nucleation score entry is “inactive”.

Take RTYMVII: the amyloid nucleation score entry was “inactive”.

Turning to RNKVHRNG, the amyloid nucleation score entry was “inactive”.

For the substance ERPSLVEW, the amyloid nucleation score entry is “inactive”.

With PYFTDAFVNEMDMQCH, the amyloid nucleation score result was “inactive”.

For the substance THLIIHCLCLFERVFITHVA, the amyloid nucleation score entry is “inactive”.

Take ACTRWS: the amyloid nucleation score result is “inactive”.

Turning to SSFPGWDIECIC, the amyloid nucleation score result was “inactive”.

For LDLLMGV, the amyloid nucleation score entry was “inactive”.

With VFLNQCLSGVMGLEGVSLDR, the amyloid nucleation score entry is “inactive”.

WHTLLDCGVGEFWS: the amyloid nucleation score result is “inactive”.

Take HRIRVVENLPHCVLSSRMPL: the amyloid nucleation score entry was “inactive”.

NFSIRCTWLVVNNAVDLRDN gave an amyloid nucleation score of 2.94 ± 0.049.

For the substance VFLCMGTYDTCFL, the amyloid nucleation score turned out to be 0.638 ± 0.16.

Consider YKYRSLYFSRYIVLYVVGVL, for which the amyloid nucleation score result was “inactive”.

With RLDVFYEMLIMYKEQYGMVR, the amyloid nucleation score entry is “inactive”.

For the substance YVWIDYSSVYMD, the amyloid nucleation score entry is “inactive”.

As for LWGKNWIDVAECIVCLPQAS, the amyloid nucleation score entry is “inactive”.

On to GSMIFFSICSHFLYLLHTYT, for which the amyloid nucleation score entry was “inactive”.

With DHKFGNMLAFESRLVLYQIK, the amyloid nucleation score result is “inactive”.

Consider FTRWIWFIVITSASCFKSFH, for which the amyloid nucleation score entry was “inactive”.

As to VDKWSCVDNFFSY, the amyloid nucleation score entry was “inactive”.

Turning to ISCTIVLRIVNYNAILVHTY, the amyloid nucleation score entry is “inactive”.

Consider CIGGWDIKGKQ, for which the amyloid nucleation score result was “inactive”.

Regarding NSSDVRQVLAIIRCGVV, the amyloid nucleation score entry was “inactive”.

Turning to LLHPYARVDMRVQ, the amyloid nucleation score result was “inactive”.

With GVRNWG, the amyloid nucleation score entry is “inactive”.

For VCLCNQVRLTM, the amyloid nucleation score result is “inactive”.

Regarding GFLSGVKVLNGGEDNDTLPE, the amyloid nucleation score entry is “inactive”.

For ATRTNYCACPLLMARWMSVL, the amyloid nucleation score result was “inactive”.

WMMNIDYTNSW: the amyloid nucleation score entry was “inactive”.

For CYLCVAAGWSMATPLRGGLA, the amyloid nucleation score result is “inactive”.

As for NDRIYCGGDYPTNH, the amyloid nucleation score entry was “inactive”.

With KGSFFLDCFGARRRIGLVKF, the amyloid nucleation score entry is “inactive”.

For LSELVLSWMQMDSCTRFDMC, the amyloid nucleation score entry is “inactive”.

The substance FYNFWWCI showed an amyloid nucleation score of 1.87 ± 0.064.

For the substance PWRLIAALACVYTWPLGLRG, the amyloid nucleation score entry was “inactive”.

RKLGPSHQWNHRWGFSVRSC: the amyloid nucleation score entry was “inactive”.

For NGDGLVLYIRLLRLRRHVDT, the amyloid nucleation score result is “inactive”.

Turning to SQTLQKDLAPSAKLCKIPGV, the amyloid nucleation score entry was “inactive”.

As to FIRLFEYMRGLPLLVKNDSV, the amyloid nucleation score stood at 0.234 ± 0.72.

As to LCVIVTAVKGFTVPWHNFFL, the amyloid nucleation score result is “inactive”.

Turning to LMSTKVVFEL, the amyloid nucleation score stood at 0.076 ± 0.19.

GDTHHCAADGV displayed an amyloid nucleation score of 0.504 ± 0.24.

On to VMIVRLYVIYPMFEVKP, for which the amyloid nucleation score result was “inactive”.

QFCSI: the amyloid nucleation score result is “inactive”.
